From patent US20070054259, “Modulation of hnRNP H and treatment of DM1” (City of Hope, published 2007)
Substitutions are numbered along the chain they refer to.

Assays:
Conditions in all cases: tags: bacterially expressed, purified as Markovtsov et al. 2000
hnRNP H (recombinant) [1] = target: T1, hnRNP H (recombinant) (UniProt P31943 P31943:1-449); experiment: EMSA; native gel, lane 3
T1 sequence: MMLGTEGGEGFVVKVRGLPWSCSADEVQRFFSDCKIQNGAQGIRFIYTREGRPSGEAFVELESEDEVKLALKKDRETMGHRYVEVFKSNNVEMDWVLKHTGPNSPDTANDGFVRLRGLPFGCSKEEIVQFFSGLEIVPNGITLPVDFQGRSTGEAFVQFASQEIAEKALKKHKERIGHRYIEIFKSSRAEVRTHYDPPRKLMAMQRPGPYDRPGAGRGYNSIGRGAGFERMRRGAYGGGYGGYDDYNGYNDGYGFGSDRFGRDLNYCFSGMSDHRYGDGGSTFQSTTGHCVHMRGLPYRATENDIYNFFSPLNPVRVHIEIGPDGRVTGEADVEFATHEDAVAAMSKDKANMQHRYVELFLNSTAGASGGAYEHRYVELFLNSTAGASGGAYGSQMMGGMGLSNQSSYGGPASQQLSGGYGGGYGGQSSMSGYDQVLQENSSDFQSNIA
Excerpt: (§1) Based on previous data FIGS. 1B, 1C, 2A and 2B) we speculated that the binding of hnRNP H to CUG repeats is proportional to the length of the repeats. The recombinant form of hnRNP H was indubated with different length CUG repeats and complexes resolved in a native gel (FIG. 4A). No binding to the CUG 5 RNA was observed (Lanes 1 and 3). When the CUG 46 RNA was used in this assay, only a small fraction of the protein was gel shifted (marked as * in lane 6). In contrast, the CUG85 RNA was much more gel shifted (marked as * in lane 9). […] Combined all hnRNP H binds to CUG repeats in a proportional way depends on the length of the (CUG) repeats.

hnRNP H (recombinant) [2] = target: T1, hnRNP H (recombinant); experiment: EMSA; much more shifted than CUG46; 50 kDa UV crosslink but no 100 kDa dimer without extract
Excerpt: as §1

hnRNP H (recombinant) [3] = target: T1, hnRNP H (recombinant); experiment: EMSA; 10 ng protein; binding abolished by branch site mutation
Excerpt: as §1
The different RNAs used in these assays have CUG repeats as well as a splicing acceptor site derived from a downstream of the DMPK gene (Gourdon, 1997). To understand the role of this 3′ branch site in the binding reaction, a mutant CUG85 clone containing a mutant form of the branch site was created (marked as CUG85′, FIG. 1A).

B1: (CUG)5 DMPK RNA (ssRNA)
RNA: CUGCUGCUGCUGCUGGGGGGAUCACAGACCA
B1: no binding (hnRNP H (recombinant) [1]).

B2: (CUG)85 DMPK RNA (ssRNA)
RNA: CUGCUGCUGCUGCUGCUGCUGCUGCUGCUGCUGCUGCUGCUGCUGCUGCUGCUGCUGCUGCUGCUGCUGCUGCUGCUGCUGCUGCUGCUGCUGCUGCUGCUGCUGCUGCUGCUGCUGCUGCUGCUGCUGCUGCUGCUGCUGCUGCUGCUGCUGCUGCUGCUGCUGCUGCUGCUGCUGCUGCUGCUGCUGCUGCUGCUGCUGCUGCUGCUGCUGCUGCUGCUGCUGCUGCUGCUGCUGCUGCUGCUGCUGCUGCUGGGGGGAUCACAGACCA
B2: binds (hnRNP H (recombinant) [2]).

B3: (CUG)85' DMPK RNA, mutated 3' branch site (ssRNA)
RNA: B2 RNA with C265G, A266U
B3: no binding (hnRNP H (recombinant) [3]).
